Legend:
sciatic nerve crush mice = experiment: Neuropathy induced by sciatic nerve crush, electrophysiological recording (CMAP); format: in vivo, mouse
Experimental: […] 8 week-old females C57bl/6 RJ mice (Elevage Janvier, Le Genest-St-Isle, France) were used. They were divided into 6 groups (n=6): • (a) nerve crush/Vehicle (Saline/0.02% BSA); • (b) nerve crush/SDF-1α (3 μg/kg); • (c) nerve crush/SDF-1α (10 μg/kg); • (d) nerve crush/SDF-1α (30 μg/kg); • (e) nerve crush/SDF-1α (100 μg/kg); • (f) nerve crush/IL-6 (30 μg/kg).
The animals were anaesthetized by inhalation of 3% Isoflurane (Baxter). The right sciatic nerve was surgically exposed at mid thigh level and crushed at 5 mm proximal to the trifurcation of the sciatic nerve. The nerve was crushed twice for 30s with a haemostatic forceps (width 1.5 mm; Koenig; Strasbourg; France) with a 90-degree rotation between each crush.
Electromyographical (EMG) testing was performed once before the surgery day and each week during 3 weeks following the operation.
The day of nerve crush surgery was considered as dpl 0 (dpl=day post lesion). No test was performed during the 4 days following the crush.
From the day of nerve injury to the end of the study, SDF-1α, IL-6 or Vehicle were administered daily by subcutaneous injections (s.c.) route, 5 days per week.
Electrophysiological recordings were performed using a Neuromatic 2000M electromyograph (EMG) (Dantec, Les Ulis, France). Mice were anaesthetized by inhalation of 3% Isofluran® (Baxter). The normal body temperature was maintained using a heated operating table (Minerve, Esternay, France).
Compound muscle action potential (CMAP) was measured in the gastrocnemius muscle after a single 0.2 ms stimulation of the sciatic nerve at a supramaximal intensity (12.8 mA). The amplitude (mV) and the latency (ms) of the action potential were measured on the operated leg. The measures was also registered on the contralateral (uncrushed) leg of Vehicle treated animals (Baseline). The amplitude is indicative of the number of active motor units, while the distal latency indirectly reflects motor nerve conduction and neuromuscular transmission velocities, which depends in part on the degree of myelination.
Global analysis of the data was performed using one-way ANOVA. Dunnett's test was used further, and data were compared to the “vehicle” control. The level of significance was set at a: p<0.001; b or **: p<0.01; c or *: p<0.05; d: p<0.1. The results were expressed as mean ±standard error of the mean (s.e.m.).
The sciatic nerve crush model described in Example 4 above was carried out to test SDF-1α variant as defined in SEQ ID NO: 4 and the mice were divided into the following 2 groups (n=6):
The SDF-1α variant used in this example and encoded by SEQ ID NO: 4 was expressed with an additional N terminal Methionine. The CMAP duration (time needed for a depolarization and a repolarization session) was also recorded.
The sciatic nerve crush model described in Example 4 above was carried out to test Met-SDF-1α (as defined in SEQ ID NO: 7) and the mice were divided into the following 2 groups (n=6):
(b) nerve crush/Met-SDF-1α variant at 100, 30, and 10 μg/kg s.c.

[1] = system: primary mixed cortical cultures stimulated with LPS; experiment: Cytokine release (TNF-α, IL-6) from LPS stimulated primary mixed cortical cultures; format: cell-based, mouse; conditions: for levels of IL-6 secretion / levels of TNF-α secretion: pre-incubation 3 h (SDF proteins 0.001, 0.1, 10 ng/ml; IL-10 10 ng/ml; dexamethasone 25 pM), then LPS 5 ng/ml 48 h, ELISA, compared to untreated cells
Experimental: Culturing of primary cells was performed as described (Lubetzki et al., 1993) using brain tissue from embryos isolated from NMRI mice at 16 days post-coitum. Cerebral hemispheres were dissected from embryo brains, dissociated via trypsin digestion and the single cell suspension was seeded at 5×10^4 cells in 50 μl myelination medium per well onto BioCoat® poly-L-lysine coated 96-well plates (356516, Becton Dickinson). The myelination medium consisted of Bottenstein-Sato medium (Bottenstein and Sato, 1979; Sadir et al., 2001), supplemented with 1% FCS, 1% penicillin-streptomycin solution (Seromed) and recombinant platelet-derived growth factor AA (PDGF-AA, R&D Systems) at 10 ng/mL.
For testing the effects of SDF-1α and SDF-1α variant (as defined in SEQ ID NO: 4) on LPS stimulated cultures, cells were allowed to grow for two weeks. At day 14 cells were pre-incubated with increasing concentrations (0.001, 0.1 and 10 ng/ml) of the corresponding proteins into 25 μl of medium for three hours at 37° C. and 10% CO2. LPS was then supplemented to the cells at the concentration of 5 ng/ml into 25 μl of medium to obtain a final volume of 100 μl and incubated for 48 hours. Supernatants were collected at day 16 and the levels of TNF-α and IL-6 (the major cytokines released by activated microglia) were measured via specific ELISAs purchased from R&D systems (DuoSet mouse TNF-α ELISA DY410, mouse IL-6 ELISA DY406).
Global analysis of the data was performed using one-way ANOVA. Dunnett's test was used further, and data were compared to the “untreated cells”. The level of significance was set at a: p<0.001; b or **: p<0.01; c or *: p<0.05; d: p<0.1. The results were expressed as mean ±standard error of the mean (s.e.m.).

[2] = system: leukocytes recruited in the peritoneal cavity; experiment: In vivo model of peritoneal cell recruitment; parameters: species or system mouse; conditions: 4 μg i.p. in Balb/C mice, 4 hours post injection
Experimental: 8-12 week old, female Balb/C mice (Janvier, France) were injected intra peritoneally (i.p.) with 200 μl NaCl (0.9%, LPS free) or chemokine 4 μg (WT SDF-1α or SDF-1α variant according to SEQ ID NO:4 diluted in 200 μl NaCl (0.9%, LPS free). […] of WT or mutant SDF-1α, mice were sacrificed by CO2 asphyxiation, the peritoneal cavity was washed with 3×5 ml ice cold PBS and the total lavage was pooled for individual mice. Total cells collected were counted by haemocytometer (Neubauer, Germany).

Molecule	CMAP latency vs vehicle treated mice (sciatic nerve crush mice; 100, 30, and 10 μg/kg s.c., day 7 and day 14 after crush)	levels of IL-6 secretion [1]	levels of TNF-α secretion [1]	leukocyte recruitment in the peritoneal cavity [2]	best concentration for decrease of TNF-α and IL-6 secretion ([1]; tested 0.001, 0.1 and 10 ng/ml, LPS 5 ng/ml 48 h)	CMAP duration vs vehicle treated mice (sciatic nerve crush mice; 30 μg/kg s.c., 7 dpl and 22 dpl)	CMAP amplitude (sciatic nerve crush mice; 30 μg/kg s.c., 22 dpl)	CMAP latency vs vehicle treated mice (sciatic nerve crush mice; 30 μg/kg s.c., 22 dpl)	CMAP latency vs vehicle treated mice (sciatic nerve crush mice; 30 μg/kg s.c., especially at 7 dpl)
Met-SDF-1α: Human mature isoform SDF-1α having an additional N-terminal Methionine, SEQ ID NO: 7	significantly reduced	–	–	–	–	–	–	–	–
IL-10: control molecule shown to inhibit cytokine release from activated microglia (protein, UniProt P18893 19-178, looked up) Interleukin-10: SRGQYSREDNNCTHFPVGQSHMLLELRTAFSQVKTFFQTKDQLDNILLTDSLMQDFKGYLGCQALSEMIQFYLVEVMPQAEKHGPEIKEHLNSLGEKLKTLRMRLRRCHRFLPCENKSKAVEQVKSDFNKLQDQGVYKAMNEFDIFINCIEAYMMIKMKS	–	down regulated	down regulated	–	–	–	–	–	–
SDF-1α variant: Triple mutant of SDF-1α (Lys24Ala, His25Ala, Lys27Ala), SEQ ID NO: 4, reduced GAG binding activity (protein, Human) KPVSLSYRCPCRFFESHVARANVAALAILNTPNCALQIVARLKNNNRQVCIDPKLKWIQEYLEKALNK	–	significantly decreased	significantly decreased	did not recruit leukocytes	10 ng/mL	reduced	significant increase	positive effect	significantly reduced

Reference: patent publication US20080253996A1, “Use of Sdf-1 for the Treatment and/or Prevention of Neurological Diseases” (LABORATORIES SERONO SA, priority 2005, published 2008)
